{"source": "paper PMC9618391", "about": "(2022)", "parents": {"B1": {"name": "wild-type human sodium/iodide symporter (hNIS) [human] / μ1B (AP1M2) expressed from cDNA in COS-7 cells [not stated] (parent complex)", "chain 1": "MEAVETGERPTFGAWDYGVFALMLLVSTGIGLWVGLARGGQRSAEDFFTGGRRLAALPVGLSLSASFMSAVQVLGVPSEAYRYGLKFLWMCLGQLLNSVLTALLFMPVFYRLGLTSTYEYLEMRFSRAVRLCGTLQYIVATMLYTGIVIYAPALILNQVTGLDIWASLLSTGIICTFYTAVGGMKAVVWTDVFQVVVMLSGFWVVLARGVMLVGGPRQVLTLAQNHSRINLMDFNPDPRSRYTFWTFVVGGTLVWLSMYGVNQAQVQRYVACRTEKQAKLALLINQVGLFLIVSSAACCGIVMFVFYTDCDPLLLGRISAPDQYMPLLVLDIFEDLPGVPGLFLACAYSGTLSTASTSINAMAAVTVEDLIKPRLRSLAPRKLVIISKGLSLIYGSACLTVAALSSLLGGGVLQGSFTVMGVISGPLLGAFILGMFLPACNTPGVLAGLGAGLALSLWVALGATLYPPSEQTMRVLPSSAARCVALSVNASGLLDPALLPANDSSRAPSSGMDASRPALADSFYAISYLYYGALGTLTTVLCGALISCLTGPTKRSTLAPGLLWWDLARQTASVAPKEEVAILDDNLVKGPEELPTGNKKPPGFLPTNEDRLFFLGQKELEGAGSWTPCVGHDGGRDQQETNL", "chain 2": "MSASAVFILDVKGKPLISRNYKGDVAMSKIEHFMPLLVQREEEGALAPLLSHGQVHFLWIKHSNLYLVATTSKNANASLVYSFLYKTIEVFCEYFKELEEESIRDNFVIVYELLDELMDFGFPQTTDSKILQEYITQQSNKLETGKSRVPPTVTNAVSWRSEGIKYKKNEVFIDVIESVNLLVNANGSVLLSEIVGTIKLKVFLSGMPELRLGLNDRVLFELTGRSKNKSVELEDVKFHQCVRLSRFDNDRTISFIPPDGDFELMSYRLSTQVKPLIWIESVIEKFSHSRVEIMVKAKGQFKKQSVANGVEISVPVPSDADSPRFKTSVGSAKYVPERNVVIWSIKSFPGGKEYLMRAHFGLPSVEKEEVEGRPPIGVKFEIPYFTVSGIQVRYMKIIEKSGYQALPWVRYITQSGDYQLRTS"}}}
{"variants_of": "B1", "experiment": "co-immunoprecipitation with Western blot quantification; COS-7 cells cotransfected with hNIS and μ1B; IP α-μ1B, WB α-hNIS; parent: 100; read off a plot"}
{"variant": "chain 1 Y118A", "percent of parent": "~61 % Relative to hNIS WT"}
{"variant": "chain 1 L587A", "percent of parent": "~100 % Relative to hNIS WT"}
{"variant": "chain 1 Y120A", "percent of parent": "~83 % Relative to hNIS WT"}
{"variant": "chain 1 L594A", "percent of parent": "~84 % Relative to hNIS WT"}
{"variant": "chain 1 L583A", "percent of parent": "~5 % Relative to hNIS WT"}
{"variant": "chain 1 L121A", "percent of parent": "~60 % Relative to hNIS WT"}
{"variant": "chain 1 L562A, chain 1 L563A", "percent of parent": "~32 % Relative to hNIS WT"}
